Source: patent publication US8993717B2, “Gadd45beta targeting agents” (Imperial Innovations Limited, priority 2009, dated 2015)
Square brackets hold non-standard residues; d marks the D form. Primed or numbered codes have the meaning given here. Peptide text beside a SMILES is read from it. * marks the point of attachment. Fmoc = O=C(OCC1c2ccccc2-c2ccccc21)*; Myristoyl = CCCCCCCCCCCCCC(=O)*; NHPhenethyl = c1ccc(CCN*)cc1; OMe′ = Asp methyl ester; Cbz = O=C(OCc1ccccc1)*; NHBn = c1ccc(CN*)cc1; Bz = O=C(c1ccccc1)*; NHPh = c1ccc(N*)cc1; βAla = NCCC(=O)O

Key:
[1] = test system: KMS11 multiple myeloma cells; assay: [3H]thymidine incorporation assay in KMS11; type: cell-based, human
Method: Cultures of multiple myeloma cells and treatments with Z-DTPs were carried out as described in Example 8 (see below). The effects of Z-DTPs on the survival/proliferation of multiple myeloma cells were evaluated by the use of [^3H]thymidine) incorporation assays, performed as also described in Example 8. The amount of cell proliferation measured with each of the Z-DTPs' concentrations used and with the untreated cultures (i.e. cultures incubated with medium alone), was expressed as counts per minute (c.p.m.)—which directly correlate with the extent of cell proliferation. All experiments were performed in triplicate.
In these latter assays, the effects of Z-DTPs, Ac-DTPs and Z-LTPs on the survival/proliferation of tumour cell lines was investigated by measuring DNA synthesis using standard tritiated thymidine ([^3H]thymidine; [^3H]-TdR) uptake assays. In the analyses shown, cells were incubated for 24, 72, 120 or 144 hrs at 37° C. in the presence or absence of control or bioactive tetrapeptides, as indicated, then subjected to an additional incubation for 18 hrs with [^3H]-TdR (0.037 MBq/well, equivalent to […]). Cells were subsequently harvested onto glass fibre filter mats using a 96-well plate automated cell harvester, after which scintillation fluid was added, and [^3H]thymidine incorporation measured by liquid scintillation spectroscopy on a beta counter. The results are expressed as the percentages of the counts per minute (c.p.m.) (directly correlating with the extent of cell proliferation) measured with tetrapeptide-treated cultures relative to the c.p.m. measured with the corresponding cultures incubated with medium alone (untreated cells). All experiments were performed in triplicate.

Gadd45β/MKK7 interaction = target: T1, Gadd45β/MKK7 interaction (Homo sapiens, UniProt O14733); assay: ELISA competition assay of biotin-hGadd45β binding to coated GST-MKK7
T1 construct: The GST-fused full-length kinase was coated for 16 h at 4° C., at a concentration of 42 nM; made in house
T1 sequence (O14733 1-419): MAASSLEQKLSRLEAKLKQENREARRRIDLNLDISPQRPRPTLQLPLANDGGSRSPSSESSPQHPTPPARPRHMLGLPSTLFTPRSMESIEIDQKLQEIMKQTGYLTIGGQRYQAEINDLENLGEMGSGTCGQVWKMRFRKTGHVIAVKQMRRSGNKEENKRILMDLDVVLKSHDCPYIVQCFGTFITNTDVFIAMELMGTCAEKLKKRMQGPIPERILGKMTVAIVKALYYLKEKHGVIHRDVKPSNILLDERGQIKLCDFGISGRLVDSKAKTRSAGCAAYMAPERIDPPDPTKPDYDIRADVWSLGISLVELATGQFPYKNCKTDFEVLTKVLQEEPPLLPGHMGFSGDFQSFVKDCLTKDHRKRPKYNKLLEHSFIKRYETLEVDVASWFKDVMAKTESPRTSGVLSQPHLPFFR
Method: To evaluate the inhibitory properties of peptides, ELISA-based assays were performed. In these assays, a fusion protein of glutathione S-transferase (GST) and mitogen-activated protein kinase kinase 7 (MKK7) was coated onto wells of a 96-well plate, while biotinylated-hGadd45β was used in solution. hGadd45β was biotinylated using an EZ Link NHS-LC-biotin kit (Pierce, Rockford, Ill.), according to Tornatore et al. (Tornatore L., et al. (2008). J Mol Biol; 378:97-111).
Firstly, the association between Gadd45β and MKK7 was investigated by ELISA assays as also reported in Tornatore et al. (Tornatore L., et al. (2008). J Mol Biol; 378:97-111). The GST-fused full-length kinase was coated for 16 h at 4° C., at a concentration of 42 nM in buffer A (25 mM Tris pH 7.5, 150 mM NaCl, 1 mM DTT and 1 mM EDTA) into wells of a 96-well microliter plate. Some wells were filled with buffer alone and were used as blanks. After incubation for 16 h at 4° C., the solutions were removed and the wells were filled with 350 μL of a 1% (w/v) solution of NFDM (Non Fat Dry Milk) in PBS (phosphate buffered saline). The plate was incubated for 1 h at 37° C. in the dark. After washing with buffer T-PBS (PBS with 0.004% (v/v) Tween detergent), the wells were filled with 100 μL of biotinylated-hGadd45β at concentrations ranging from 8.4 nM to 168 nM. Each data point was performed in triplicate. Following incubation for 1 hr in the dark at 37° C. the solutions were removed and the wells were again washed with T-PBS. Then 100 μL of a 1:10,000 dilution of horseradish peroxidase-conjugated streptavidin dissolved in buffer was added to each well and the plate incubated for 1 hr at 37° C. in the dark. After removal of the enzyme solution and washing, 100 μL of the chromogenic substrate o-phenylendiamine (0.4 mg/mL in 50 mM sodium phosphate-citrate buffer, containing 0.4 mg/mL of urea in hydrogen peroxide) was added and the colour was allowed to develop in the dark for 5 min. The reaction was stopped by adding 50 μL of 2.5 M H2SO4. The absorbance at 490 nm was measured in all wells and the values were averaged after subtracting the corresponding blanks. Bound protein was then detected as described above. The molar concentration of biotinylated-hGadd45β at which the half-maximal ELISA signal is detected corresponds to the dissociation constant (KD) (Friguet B, Chaffotte A F, Djavadi-Ohaniance L, Goldberg M E. J Immunol Methods. 1985 Mar. 18; 77 (2):305-19). Binding competition assays were performed by coating GST-MKK7 at 42 nM as described, a concentration of biotinylated-hGadd45β of 21 nM (pre-saturation conditions 1:0.5 mol/mol ratio) and, in a first test, using competitors at 21 nM. The binding of biotinylated hGadd45β to GST-MKK7 was analyzed in the presence of increasing amounts of competitor peptide (concentrations ranging from 0.01 nM to 100 nM), and the values obtained with the competitor were expressed as the percentage of the binding detected in the absence of competitor. […] According to the convention adopted in the table “L-Xaa” and “D-Xaa” refer to the L and D forms of amino acid Xaa.
A simplified combinatorial peptide library (Marasco et al. 2008, Curr. Protein Pept. Sci. 9:447-67) was screened for antagonists of the Gadd45β/MKK7 interaction. This library contained a total of 12^4=20,736 different tetrapeptides formed by combinations of the following amino acid residues Gln (Q), Ser (S), Arg (R), Ala (A), Tyr (Y), Pro (P), Met (M), Cys (C), Phe (F), Leu (L), His (H), Asp (D), and was iteratively deconvoluted in four steps by ELISA competition assays using at each step coated MKK7 (42 nM), soluble-biotin-hGadd45β (21 nM) and each of the 12 sub-libraries (42 nM).

[2] = Table I, initial Elisa screening, coated MKK7 42 nM, biotin-hGadd45β 21 nM, competitor 21 nM, sub-libraries 42 nM

Row | Compound | % Inhibition of Gadd45β-MKK7 binding (Gadd45β/MKK7 interaction; [2]) [%] | % Inhibition of Gadd45β-MKK7 binding (Gadd45β/MKK7 interaction; Table III, modified peptides) [%] | further results
1 | N=C(N)NCCC[C@@H](NC(=O)[C@@H](CCC(=O)O)NC(=O)c1ccccc1)C(=O)Nc1ccccc1 [Compound 10, X1-Glu-Arg-Y1] (Bz-[dE]-[dR]-NHPh) |  |  | IC50 [1]: > 10 µM
2 | N=C(N)NCCC[C@@H](NC(=O)[C@@H](CCC(=O)O)NC(=O)c1ccccc1)C(=O)NCc1ccccc1 [Compound 11, X1-Glu-Arg-Y2] (Bz-[dE]-[dR]-NHBn) |  |  | IC50 [1]: > 10 µM
3 | N=C(N)NCCC[C@@H](NC(=O)[C@@H](CCC(=O)O)NC(=O)c1ccccc1)C(=O)NCCc1ccccc1 [Compound 12, X1-Glu-Arg-Y3] (Bz-[dE]-[dR]-NHPhenethyl) |  |  | IC50 [1]: > 10 µM
4 | N=C(N)NCCC[C@@H](NC(=O)[C@@H](CCC(=O)O)NC(=O)c1ccc(O)cc1)C(=O)Nc1ccccc1 [Compound 13, X2-Glu-Arg-Y1] |  |  | IC50 [1]: > 10 µM
5 | N=C(N)NCCC[C@@H](NC(=O)[C@@H](CCC(=O)O)NC(=O)c1ccc(O)cc1)C(=O)NCc1ccccc1 [Compound 14, X2-Glu-Arg-Y2] |  |  | IC50 [1]: > 10 µM
6 | Fmoc(βAla)2-YDHA-NH2 ({Fmoc-βAla-βAla}-YDHA-NH2; SMILES C[C@H](NC(=O)[C@H](Cc1c[nH]cn1)NC(=O)[C@H](CC(=O)O)NC(=O)[C@H](Cc1ccc(O)cc1)NC(=O)CCNC(=O)CCNC(=O)OCC1c2ccccc2-c2ccccc21)C(N)=O) | 15 |  | 
7 | Fmoc(βAla)2-YDHC-NH2 ({Fmoc-βAla-βAla}-YDHC-NH2; SMILES NC(=O)[C@H](CS)NC(=O)[C@H](Cc1c[nH]cn1)NC(=O)[C@H](CC(=O)O)NC(=O)[C@H](Cc1ccc(O)cc1)NC(=O)CCNC(=O)CCNC(=O)OCC1c2ccccc2-c2ccccc21) | 44 |  | 
8 | Fmoc(βAla)2-YDHD-NH2 ({Fmoc-βAla-βAla}-YDHD-NH2; SMILES NC(=O)[C@H](CC(=O)O)NC(=O)[C@H](Cc1c[nH]cn1)NC(=O)[C@H](CC(=O)O)NC(=O)[C@H](Cc1ccc(O)cc1)NC(=O)CCNC(=O)CCNC(=O)OCC1c2ccccc2-c2ccccc21) | 0 |  | 
9 | Fmoc(βAla)2-YDHF-NH2 ({Fmoc-βAla-βAla}-YDHF-NH2) | 99 |  | 
10 | Fmoc(βAla)2-YDHH-NH2 ({Fmoc-βAla-βAla}-YDHH-NH2; SMILES NC(=O)[C@H](Cc1c[nH]cn1)NC(=O)[C@H](Cc1c[nH]cn1)NC(=O)[C@H](CC(=O)O)NC(=O)[C@H](Cc1ccc(O)cc1)NC(=O)CCNC(=O)CCNC(=O)OCC1c2ccccc2-c2ccccc21) | 40 |  | 
11 | Fmoc(βAla)2-YDHL-NH2 ({Fmoc-βAla-βAla}-YDHL-NH2; SMILES CC(C)C[C@H](NC(=O)[C@H](Cc1c[nH]cn1)NC(=O)[C@H](CC(=O)O)NC(=O)[C@H](Cc1ccc(O)cc1)NC(=O)CCNC(=O)CCNC(=O)OCC1c2ccccc2-c2ccccc21)C(N)=O) | 33 |  | 
12 | Fmoc(βAla)2-YDHM-NH2 ({Fmoc-βAla-βAla}-YDHM-NH2; SMILES CSCC[C@H](NC(=O)[C@H](Cc1c[nH]cn1)NC(=O)[C@H](CC(=O)O)NC(=O)[C@H](Cc1ccc(O)cc1)NC(=O)CCNC(=O)CCNC(=O)OCC1c2ccccc2-c2ccccc21)C(N)=O) | 14 |  | 
13 | Fmoc(βAla)2-YDHP-NH2 ({Fmoc-βAla-βAla}-YDHP-NH2; SMILES NC(=O)[C@@H]1CCCN1C(=O)[C@H](Cc1c[nH]cn1)NC(=O)[C@H](CC(=O)O)NC(=O)[C@H](Cc1ccc(O)cc1)NC(=O)CCNC(=O)CCNC(=O)OCC1c2ccccc2-c2ccccc21) | 16 |  | 
14 | Fmoc(βAla)2-YDHR-NH2 ({Fmoc-βAla-βAla}-YDHR-NH2; SMILES N=C(N)NCCC[C@H](NC(=O)[C@H](Cc1c[nH]cn1)NC(=O)[C@H](CC(=O)O)NC(=O)[C@H](Cc1ccc(O)cc1)NC(=O)CCNC(=O)CCNC(=O)OCC1c2ccccc2-c2ccccc21)C(N)=O) | 2 |  | 
15 | Fmoc(βAla)2-YDHS-NH2 ({Fmoc-βAla-βAla}-YDHS-NH2; SMILES NC(=O)[C@H](CO)NC(=O)[C@H](Cc1c[nH]cn1)NC(=O)[C@H](CC(=O)O)NC(=O)[C@H](Cc1ccc(O)cc1)NC(=O)CCNC(=O)CCNC(=O)OCC1c2ccccc2-c2ccccc21) | 0 |  | 
16 | Fmoc(βAla)2-YDHY-NH2 ({Fmoc-βAla-βAla}-YDHY-NH2; SMILES NC(=O)[C@H](Cc1ccc(O)cc1)NC(=O)[C@H](Cc1c[nH]cn1)NC(=O)[C@H](CC(=O)O)NC(=O)[C@H](Cc1ccc(O)cc1)NC(=O)CCNC(=O)CCNC(=O)OCC1c2ccccc2-c2ccccc21) | 63 |  | 
17 | Fmoc-YDFQ-NH2 (SMILES NC(=O)CC[C@H](NC(=O)[C@H](Cc1ccccc1)NC(=O)[C@H](CC(=O)O)NC(=O)[C@H](Cc1ccc(O)cc1)NC(=O)OCC1c2ccccc2-c2ccccc21)C(N)=O) |  | 19 | 
18 | Fmoc-YDHF-NH2 |  | 58 | 
19 | Fmoc-YERF-NH2 |  | 60 | 
20 | Myr-YDHF-NH2 (Myristoyl-YDHF-NH2) |  | 26 | 
21 | Myr-YDHQ-NH2 (Myristoyl-YDHQ-NH2) |  | 28 | 
22 | Myr-YERF-NH2 (Myristoyl-YERF-NH2) |  | 37 | 
23 | Z-YD(OMe)HF-NH2 (Cbz-YD(OMe′)HF-NH2) |  | 84 | 
24 | Z-YD(OMe)HQ-NH2 (Cbz-YD(OMe′)HQ-NH2) |  | 3 | 
25 | Z-YDHQ-NH2 (Cbz-YDHQ-NH2) |  | 13 | 
